How the values were obtained:
[1] = target: T1, PCSK9 D374Y D374Y (Homo sapiens) (UniProt Q8NBP7+Q8NBP7); assay: inhibition; conditions: all C = PP-dC (5-position), all U = Nap-dU (5-position); blocks PCSK9 D374Y binding to LDL-R, room temperature; text names 11733-198
[2] = target: T1, PCSK9 D374Y D374Y (Homo sapiens); assay: filter; conditions: all C = PP-dC (5-position), all U = Nap-dU (5-position); aptamer identity per figure legend; text names 11733-198

T1 sequence (Q8NBP7 whole entry, stated change not applied, chain 1 of 2): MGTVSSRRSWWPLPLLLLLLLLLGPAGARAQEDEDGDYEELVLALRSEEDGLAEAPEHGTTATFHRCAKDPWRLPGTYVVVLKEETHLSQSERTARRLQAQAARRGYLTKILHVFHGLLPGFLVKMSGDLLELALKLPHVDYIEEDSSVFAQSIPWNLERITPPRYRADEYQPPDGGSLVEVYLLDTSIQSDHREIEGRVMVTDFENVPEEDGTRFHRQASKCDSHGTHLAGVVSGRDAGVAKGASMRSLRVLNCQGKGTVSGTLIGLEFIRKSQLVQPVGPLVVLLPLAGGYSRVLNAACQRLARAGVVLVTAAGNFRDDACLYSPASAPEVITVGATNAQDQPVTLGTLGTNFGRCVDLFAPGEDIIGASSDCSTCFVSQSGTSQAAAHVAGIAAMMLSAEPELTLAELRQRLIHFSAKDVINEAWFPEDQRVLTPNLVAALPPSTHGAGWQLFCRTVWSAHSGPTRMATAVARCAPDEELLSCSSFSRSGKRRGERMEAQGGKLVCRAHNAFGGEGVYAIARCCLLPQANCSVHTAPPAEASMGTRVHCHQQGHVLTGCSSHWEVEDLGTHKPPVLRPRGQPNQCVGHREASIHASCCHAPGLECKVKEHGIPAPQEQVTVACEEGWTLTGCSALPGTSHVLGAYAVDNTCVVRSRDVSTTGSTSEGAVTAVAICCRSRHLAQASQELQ
T1 sequence (Q8NBP7 whole entry, stated change not applied, chain 2 of 2): as the sequence (Q8NBP7 whole entry, stated change not applied, chain 1 of 2) above

Sequence: AACGUACUUUAAGGCCUAUUGAGGAAACUC [11733-44 (SL1063)]
- EC50 [1]: 3.6 nM
- Kd [2]: 0.0052 nM
